Measurements reported in the nanobody polyreactivity screen of Harvey et al. (2022).

Assay: yeast display, Sf9 membrane polyspecificity reagent, FACS + sequencing; frameworks hold sequencing errors
Method in brief: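 Nanobodies from a synthetic yeast display library (Saccharomyces cerevisiae BJ5465), induced 36–48 hours with galactose, were stained 1 hour at 4 °C with 10% biotinylated, detergent-solubilized Sf9 membrane reagent, enriched on streptavidin microbeads, then FACS-sorted. Anti-HA (expression) and streptavidin (reagent binding) fluorescence set low and high (top ~1%) gates. Polyreactivity labels come from the gate of origin. Genes were colony-PCR amplified, MiSeq 2 × 250 sequenced and filtered by CDR length.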

| Sequence | polyreactivity (PSR sort gate) |
| --- | --- |
| QVQLVESGGGLVQAGGSLRLSCAASGSTFQHYAMGWYRQAPGKERELVAAITNTGGSTYYADSVKGRFTISRDNAMNTVYLLMNSLKPEDTAVYYCATVGRRYGYPGYYWGQGTQVTVSS | low polyreactivity |
| QVQLVESLGGLVQAGGSLRLSCAASGITFGWYAMGWYRQAPGQERELVAAISPAGSTYYADSVKGRFTISRDNAKNTVYLQMNSLKPEDTAVYYWRYSAFRFSAMGYWGHGTQVTVSS | high polyreactivity |
| QVQLVESGGGLVQAGGSLRLSCAASGRTFIAYAMGWYRQAPGKERELVAAITSSGGSTYYADSVKGRFTISRDNAKNTVYLQMNSLKPEDTAVYYCATDIYESPYFYYSYYYWGQGTQVTVSS | low polyreactivity |
| QVQLVESVGGLVQAGGSLRLTCVASGRIFLTYAMGWYRQAPGKERELVAAISYSGASTYYADSVKGRFTISRDNAKNTVYLQMNSLKPEDTAVYYCATERVGTPRMNYWGQGTQVTVSS | high polyreactivity |
| QVQLVESGGGLVQAGGSLRLSCAASGSTFPVYAMGWYRQAPGKERELVAAISRAGSTNYADSVKGRFTISRHNAKNTVYLEMNSLKPEDTAVYYCAARGYLWAGEWYVRRDYWGQGTQVTVSS | high polyreactivity |
| QVQLVESGGGLVQAGGSLRLSCAASGSTFSYYAMGWYRQAPGKEWELVAAIRSGGSTYYADSVKGRFTISRDNAKNTVYLQMNSLKPEDTAVYYCNADYIRASTLNYGTIYYWHYDYWGQGTQVTVSS | high polyreactivity |
| QVQLVESGGGLVQAGGSLRLSCAASGITFHANAMGWNRQARGKERELVPAINWSGGSTYYADSVKGRFTISRDNAKNTVYLQMNSLKPEDTAVYYCAAELWGLFDYWGQGTQVTVSS | low polyreactivity |
| QVQLVESGGGLVQAGGSLRLSCAASGIIFGENAMGWYRQAPGKERELVAAITESGGSTYYADSVKGRFTISRDNAKNTVYLQMNSLKPEDTAVYYCNALPFRYGKRRGYWGQGTQVTVSS | low polyreactivity |
| QVQLVESGGGLVQAGGSLRLSCAASGRTFRHYAMGWYRQAPGKDRELVAAISGSGGRTYYADSVKGRFTISRDNAKNTVYLQMNSLKPEDTAVYYCATRHTTRFYWGQGTQVTVSS | high polyreactivity |
| QVQLVESGGGLVQAGGSLRLSCDASGRIIQQYAMGWYRQAHGKERELVDAISRGGSTYYADSVKGRFTISRDNAKNTVYLQMNSLKPEDTAVYYCAVRSRRGLKYDYWGQGTQVTVSS | high polyreactivity |
| QVQLVESGGGLVQAGGSLRLSCAASGSTFPEYGMGWYRQAPGKERELVAAINSRGGNTYYADSVKGRFTISRDNAKKTVYLQMNSLKPEDTAVYYCNRLSSYNMDYWGQGTQVTVSS | high polyreactivity |
| QVQLVESGGGLVQAGGSLRLSCAASGSNFVYNAMGRNRQAPGKERELVAAISSGGRTNYADSVKGRFTISRDNANNTVYLQMNSLKPEDTAVYYCADEGLLWWSGYYYWGQGTQVTVYS | high polyreactivity |
| QVQLVESGGGLVQAGGSLRLSCAASGIIFPRYAMGWYRQAPGKERELVAAITKRGGSTYYADSVKGRFTISRDNAKNTVYLQMNSLKPEDTAVYYCAADDNSGYYYWGQGTQVTVSS | high polyreactivity |
| QVQLVESGGGLVQAGGSLRLSCAASGFTIKYYAMGWYRQAPGKEREFVAAISSSGGRTYYADSVKVRFTISRDYAKNTVYLQMNSLKPEDTAVYYCAAAWGTYGYHYDYLGQGTQVTVSS | low polyreactivity |
| QVQLVESGGGLVQAGGSLRLSCAASGSTFQRYVIGWYRQAPGKERELVAAITRTGASTYYADSVKGRFTISRDNAKNTVYLQMNSLKPEDTAVYYCAARYRLGSYTYDYSGQGTQVTVSS | high polyreactivity |
| QVQLEESGGGLVQAGGSLRLSCAASGSIFAVYAMGWYRHAPGKERELVAAIRSGSRTYYADSVKGRFTISRDNAKNTVYLQMNSLKPEDTAVYYCATTYGTPRYDYWGQGTQVTVSS | high polyreactivity |
| QVQLVESVGGLVQAGGSLRLSCAASGSTFSSNAMGWYRQAPGKERELVAAINRTGNTYYADSVKGRFTISRDNAKNTVYLQMNSLKPEDTAVYYCNTDLNLYRGGGYWGQGTQVTVSS | low polyreactivity |
| QVQLVESGGGLGQAGGSLRLSCSASGRIFDIYGMGWYRQAPGKERELVAAITSGGDTNYADSVKGRFTISRDNAKNTVYLQMNSLKPEDTAVYYCAARIRDQDRYDYDYWGQGTQVTVSS | low polyreactivity |
| QDQLVESGGGLVQAGGSLRLSCAASGYTFRYYAMGWYRQAPGKERELVARITGRAGSTYYADSVKGRFTISRDNAKNTVYLQMNSLKPEDTAVYYCAASIREGFYWGQGTQVTVSS | high polyreactivity |
| QVQLVESGGGLVQAGGSLRLSCASSGITFILYAMGWYRQAPGKDRELVASITSGGSTDYADSVKGRFTISRDNAKNTVYFQMNSLKPEDTAVYYCAARYVYPYWYGDYYWGQGTQVTVSS | low polyreactivity |
| QVQLVESGGGLVQAGGSLRLSCAASGSIFGYYAMGWYRQAPGKERELVAAISSSGASTYYADSVKGRFTISRDNAKNTVYLQMNSLKPEDTAVYYCNAARRYPTRGGYWGQGTQVTVSS | high polyreactivity |
| QVQLVESGGGLVQAGGSLRLSCAASGSTLDYNAMGWYRQATGKERELVAAINWSGGRTYYADSVKGRFTISRDNAKNTVYLQMNSLKPEDTAVYFCAAVDYKAKGYGYWGQGTQVTVSS | high polyreactivity |

| Sequence | polyreactivity (PSR sort gate) |
| --- | --- |
| QVQLVESGGGLVQAGGSLRLSSAASGSTFRYYTMGWYRPAPGKERELVADITIGGSTYYADSVKGRFTISRDNAKNTVYLQMNSLKPEDSAVYYCAARSTGGRIFATGVAYDYWGQGTQVTVSS | low polyreactivity |
| QVQLVESGGGLVQAGGSLRLSCAASGIILPTYVMGWYRQAPGKERELVAAISRRGGSTYYADSVKGRFTISRDNAKNTVYLQMNSLKPEDTAVYYCNAVSNPVGSAYDYWGQGTQVTVSS | high polyreactivity |
| QVQLVESGGGLVQAGGSLRLSCAASGRTFVYNAMGWYRQEPGKERELVAAITWNGGSKYYADSVKGRFTISRDNAKITVYLQMNSLKPEDTAVYYCNRDVRYVGPSGFDYWGQGTQVTVSS | high polyreactivity |
| QVQLVESGVGLVQAGGSLRLSCAASGSIFDPYAMGWYRQPPGKERELVAAIPYSVGGTTYYADSVKGRFTISRDTAKNTVYLQMNSLKPEHTAVNYCAAEWWGNPFDYWGQGTQVTVST | high polyreactivity |
| QVQLVESGGGLVQAGGSLRLSCAASGRIFSYYDMGWYRQAPGKERELVARISYSGDSTYYADSVKGRFTISRDNAKNTVYLQMNSLKPEDTAVYYCAADSITSKNQGLDYDYWGQGTQVTVSS | low polyreactivity |
| QVQLVESGGGLVQAGGSLRLSCAASGTNFRYYTMGWYRQAPGKERELVAAITYSGGTTYYADSVKGRFTISRDNAKNTVYLQMNSLKPEDTAVYYCAATFQANYFSGYYTVYLSDYWGQGTQVTVSS | low polyreactivity |
| QVQHVESGGGLVQAGGSLRLSCAASGSIFDRNAMGRYRQAPGKERELVAAISGGDSTYYADSVKGRFTISRDNAKNTVYLQMNSLKPEDTAVYYCNVDFKTEYDYWGQGTQVTVSS | low polyreactivity |
| QVQLVESGGGLVQAGGSLRLSCAASGSILSSYAMGWYRQAPGKERELVAAISWRGGPTYYADSVKGRFTISRDNAKNTVYLQMNSLKPEDTAVYHCAAEFYDHPWLYDYWGQGTQVTVSS | low polyreactivity |
| QVQLVESGGGLVQAGGSLRLSCAASGRIFYYYAMGWYRQAPVKERELVAAISQRGGRTYYADSVKVRFTISRDNAKNTVYLQMNSLKPEDTAVYYCNAYPVYGRYTHYGYGHWGQGTQVTVSS | high polyreactivity |
| QVQLVESGGGLVQAGGRLRLSCAASGFIFDTKAMGWYRKAPGKERELGARISSSAGSTYYADSVKGLFTISRDNAKNTVYLQMNSLKPEDTAVYYCNRTYRLPVYKVDYWGQGTQVTVSS | low polyreactivity |
| QVQLVESGGGIVQAGGSLRLSCAASGRIFATYAMGWYRQAPGKERELVAAIRSDGNTKYADSVKGRFTISRDNAKNTVYLQMNSLKPEDTAVYYCAAYARYAGVLYDYWGQGTQVTVSS | high polyreactivity |
| QVHLVESGGGLVQAGGSLRLSCAASGRTFGYYAMGWYRPAPWKEWELVAAITQSGGSTYYADSVKGRFTISRDTAKITVYLQMHSLKPEDTAVYYCAADDKYFYPGNGYWGQGTQVTVSS | high polyreactivity |
| QVQLVESGGGLVQAGGSLRLSCAASGFIFGYNVMGWYRQAPGKERELVAAISSRGSSTYYADSVKGRFTISRDDVKNTVYLQMNSLKPEDTAVYYCAAYSSYNSWVSRRYGHDYWGQGTQVTVSS | high polyreactivity |
| QVQLVESGGGLVQAGGSLRLSCAATGSIFSFYAMGWYRQAPGKERELVAGIRWRGGTSTFYADSVKGRFTISRDKAKNTVYLHMNSLKPEDTAVYYCAAKRRTGGNGYWGQGTQVTVSS | high polyreactivity |
| QVQLVESGGGLVQAGGSLRLSCAASGSIFYQNMGWYRQAPRKERELVATINRGSSTHYADSVKGRFTISRDNAKNTVYLQMNSLKPEDTAVYYCAKRSSRYRLYYWGQGTQVTVSS | high polyreactivity |
| QVQLVESGGGLVQAGGSLRLSCAASGRIFFPYAMGWYRQAPGKERELVAAINYSGGSTYYADSVKGRFTISRDNAKNTVYLQMNSLKPEDTAVYYCADGYFWALYVRKYDYWGQGTQVTVSS | high polyreactivity |
| QVQLVESGGGLVQAGGSLRLSCAASGITFRYYAMGWYRQAPGKERELVAVISTSGGSTYYADSVKGRFTISRDNAKNTVFLQMNSLKPEDTAVYYCAVVWPYYERYYYWGQGTQVTVSS | high polyreactivity |
| QVQLVESGGGLVQAGGSLRLSCDPSGSIFYRNAMVWYRPAPGKERELVATITVNGGRTYYADSVKGRFTISRDNAKNTVYLQMNSLKPEDTAVYYCAKDVHRWYPYDYWGQGTQVTVSS | low polyreactivity |
| QVQLVESGGGLVQAGGSRRLSCAASGRFFSAYAMGWYRQAPGKDRELVAAITWSGANTDYADSVKGRFTISRDNANNTVYLQMNSLKPEDTAVYYCNASVGRDSAYDYWGQGTQVTVSS | low polyreactivity |
| QVQLVESGGGLVQAGGSLRLRCAASGSTSPFNAMGWYRQAPGKERELVASITSSGSTNYADSVKGRFTISRDNAKNTVYLQINSLKPEDTAVYYCASEGVVSETFYAYWGQGTQVTVSS | low polyreactivity |
| QVQLVESGGGLVQAGGSLRLSCAASGRTFYLYAMGWYRQAPGKERELVAAITWRGGSTYYADSVKGRFTISRDNAKNTVYLQMNSLKPEDTAVYYCAAVTFFYYSAVRYEYYYWGQGTQVTVSS | high polyreactivity |
